In the data set the test system is HPPD polypeptides. In words: coupled HPPD activity assay: turnover and residual turnover in crude extracts. In kind it is biochemical, Pseudomonas fluorescens. The note with it: for Residual turnover [%]: 100 μM Cmpd. 1, signal change with inhibitor divided by signal change without inhibitor; for Turnover: absence of Cmpd. 1, kinetic changes in absorbance (OD) at 320 nm, 30 min; for Turnover / Residual turnover: high substrate concentration; for Residual turnover: presence of 100 μM Cmpd. 1, changes in absorbance (OD) at 320 nm. The procedure:
The activity of HPPD polypeptides was determined in absence or presence of HPPD inhibitors using the coupled HPPD activity assay (FIG. 1).
For the determination of the residual activity, the apparent kinetic constant (kapp) of the determined substrate conversion was measured as kinetic changes in absorbance (OD) at 320 nm in a coupled assay, in that homogentisate (HGA) formed by HPPD from HPP is directly converted into the well absorbing molecule maleylacetoacetate (MAA) by a second enzyme homogentisate dioxygenase (HGD), applied in excess uniformly in all assays (see FIG. 1). The measurements were performed in 384 micro titer plates (Greiner Bio-One GmbH, Frickenhausen, Germany) by plate readers (Tecan infinite M1000 or M1000PRO, Tecan, Männedorf, Switzerland). The kcat/kM ratio of an enzymatic activity is proportional to the apparent kinetic constant kapp and is proportional to kcat/kM*[E] ([E]=enzyme concentration). […] As both kapp measurements in the presence and absence of inhibitor were performed by use of the identical enzyme sample, crude or purified, and thereby at the same enzyme concentration, the enzyme concentration eliminates from the calculation of residual activity and the ratio of both kapp directly indicates the change of kM due to the inhibition.
The assay solution used for determination of residual activities in raw HPPD polypeptide samples was composed by 200 mM sodium phosphate (Merck, Darmstadt, Germany, pH 7.0), 5 mM MgCl2 (Merck, Darmstadt, Germany), 20 mM ascorbate (Sigma-Aldrich, St. Louis, USA), 1 mM DTT (Sigma-Aldrich, St. Louis, USA), 0.1% Pluronic F-68 (Sigma-Aldrich, St. Louis, USA), 40 μM FeSO4 (Sigma-Aldrich, St. Louis, USA), about 8 mg/ml purified HGD and 500 μM HPP from a 1 M stock solution in DMSO (Sigma-Aldrich, St. Louis, USA) and equilibrated for 20 min on ice. For every HPPD polypeptide sample two assays were performed in quadruplets, whereby 5 μl of HPPD polypeptide sample were mixed firstly with 5 μl buffer (1×BugBuster®; (Merck, Darmstadt, Germany); in 140 mM Tris, pH 7.8, with 1:25000 diluted BNase®; Qiagen, Hilden, Germany)) or 5 μl inhibitor diluted in the same buffer from a 0.1 M stock solution in DMSO (200 μM resulting in 100 μM in the HPPD polypeptide/inhibitor sample) in the reference and inhibition assay, respectively, and subsequently with 10 μl assay solution. The change in absorbance at 320 nm was followed in 1 min intervals for 30 min. The kapp values were calculated as signal slope over time in the early phase of the kinetic reaction, usually for the first 5-10 minutes of the measurements. Additionally and according to the calculated residual activity, the total conversion, i.e. the absolute change in signal, in the 30 min timeframe was monitored as measure of turnover, and a residual turnover was calculated by dividing the change in signal in the presence of inhibitor by the change in signal in the reference sample without inhibitor.
Residual turnover were determined according to Example 3 by measuring total change in signal in the presence and absence of Cmpd. 1 (2-chloro-3-(methylsulfanyl)-N-(1-methyl-1H-tetrazol-5-yl)-4-(trifluoromethyl)benzamide). For each mutant HPPD polypeptide, the total change in signal without HPPD inhibitor herbicides served for normalization of the total change in signal in the presence of the herbicide.

Results on 11 molecules are retold here after patent publication US11180770B2, “HPPD variants and methods of use” (BASF Agricultural Solutions Seed US LLC, priority 2017, dated 2021).

Changes are numbered by the printed parent chain.

B1: 51 (protein)
chain: MADLYENPMGLMGFEFIEFASPTPGTLEPIFEIMGFTKVATHRSKNVHLYRQGEINLILNNEPNSIASYFAAEHGPSVCGMAFRVKDSQKAYNRALELGAQPIHIDTGPMELNLPAIKGIGGAPLYLIDRFGEGSSIYDIDFVYLEGVERNPVGAGLKVIDHLTHNVYRGRMVYWANFYEKLFNFREARYFDIKGEYTGLTSKAMSAPDGMIRIPLNEESSKGAGQIEEFLMQFNGEGIQHVAFLTDDLVKTWDALKKIGMRFMTAPADNYYEMLEGRLPDHGEPVDQLQARGILLDGSSVEGDKRLLLQIFSETLMGPVFFEFIQRKGDDGFGPDSFKVLFESKERDQVRRGVLTAD
modifications: mutant HPPD polypeptide
As for B1, the “Residual turnover [%]” value came to 56%, the Turnover is listed as 0.131 and the Residual turnover is 0.074.

B2: 57 (protein)
chain: B1 chain with D336H, S344Q
modifications: mutant HPPD polypeptide
For the molecule B2, the “Residual turnover [%]” value is 59%, the Turnover is on record as 0.167 and the Residual turnover is given as 0.099.

B3: 55 (protein)
chain: B1 chain with D336H
modifications: mutant HPPD polypeptide
Consider B3, for which the “Residual turnover [%]” value is 50%, the Turnover was determined as 0.189 and the Residual turnover turned out to be 0.095.

B4: 60 (protein)
chain: B1 chain with M172I, V173D, N270S
modifications: mutant HPPD polypeptide
As to B4, the “Residual turnover [%]” value came out at 45%, the Turnover is 0.103 and the Residual turnover turned out to be 0.046.

B5: 58 (protein)
chain: B1 chain with N270S, K345I
modifications: mutant HPPD polypeptide
Regarding B5, the “Residual turnover [%]” value was found to be 45%, the Turnover stood at 0.144 and the Residual turnover came to 0.065.

B6: 53 (protein)
chain: B1 chain with S344Q, K345V
modifications: mutant HPPD polypeptide
As for B6, the “Residual turnover [%]” value is reported as 54%, the Turnover is recorded as 0.199 and the Residual turnover was determined as 0.107.

B7: 56 (protein)
chain: B1 chain with D336H, S344Q, K345I
modifications: mutant HPPD polypeptide
Turning to B7, the “Residual turnover [%]” value came to 57%, the Turnover is recorded as 0.152 and the Residual turnover amounted to 0.086.

B8: 54 (protein)
chain: B1 chain with S344Q
modifications: mutant HPPD polypeptide
Regarding B8, the “Residual turnover [%]” value is 66%, the Turnover amounted to 0.089 and the Residual turnover is 0.059.

B9: 59 (protein)
chain: B1 chain with N270S, S344Q
modifications: mutant HPPD polypeptide
As to B9, the “Residual turnover [%]” value stood at 56%, the Turnover worked out at 0.131 and the Residual turnover was 0.074.

B10: 61 (protein)
chain: B1 chain with N270S, D336H, K345I
modifications: mutant HPPD polypeptide
For the molecule B10, the “Residual turnover [%]” value is 40%, the Turnover was 0.229 and the Residual turnover is listed as 0.091.

B11: 52 (protein)
chain: B1 chain with S344Q, K345I
modifications: mutant HPPD polypeptide
For B11, the “Residual turnover [%]” value was determined as 47%, the Turnover is given as 0.189 and the Residual turnover came out at 0.088.
